Data on six molecules can be found in patent US20180162952A1.

Several values for one entry are separate records, joined by “and”; a condition that tells them apart may be missing. Identical values can stand only once.

Test [1] deals with human PTK7 on non-engineered cells (human), Q13308. In words: cell-based or functional assay.
Test [2] deals with human PTK7 on non-engineered cells (human) (UniProt Q13308). Nature of the test: cell-based or functional assay.

B1: SC6.21 (antibody, V domains shown)
VH: SDVQLQESGPGLVKPSQTLSLTCSVPDYSITSDYHWHWIRQFPGNKLEWMGYISSRGSTNYNPSLKNRISITHDTSENQFFLKLTSVTTEDSATYYCAGLSQLALDYWGQGTTLTVSS
VL: DIVMSQSPSSLAVSVGEKVTLSCKSSQSLLYSSTQNNYLAWYQQTPGQSPKLLIYWASTRESGVPDRFTGSGSGTDFTLTISSVKAEDLAVYYCQQYYSYPWTFGGGTKLEIK
As to B1, the EC50, saporin (Fab-ZAP) cell killing, G401 Cells in test [1] was determined as 200 pM.

B2: SC6.23 (antibody, V domains shown)
VH: QVTLKESGPGILKPSQTLSLTCSFSGFSLSTSNMGVGWIRQPSGKGLEWLAHIWWDDDKYYNPSLKSQLTISKDTSRNQVFLKITSVDTEDTATYYCVRSNYGYAWFAYWGQGTLVTVSA
VL: DIKMTQSPSSMYASLGERVTITCKASQDIYPYLNWFQQKPGKSPKTLIYRTNRLLDGVPSRFSGSGSGQDYSLTISSLDYEDMGIYYCLQYDEFPLTFGAGTKLELK
In test [1], B2 gave an EC50, saporin (Fab-ZAP) cell killing, G401 Cells of 2.6 pM and an EC50, saporin (Fab-ZAP) cell killing, HEK293T Cells of 3 pM.

B3: SC6.2.35 (antibody, V domains shown)
VH: QVQMQQSGAELMKPGASVKLSCKATGYTFTGYWIEWVKQRPGHGLEWIGEILPGSGRSNSNEKFKGKATFTADTSSNTAYMQLSSLTTEDSAIYYCARGKLSWGQGTLVTVSA
VL: DIVLTQSPASLAVSLGQRATISCRASESVDSFGNSFMHWYQQKPGQPPKLLIYAASNLGSGVPARFSGSGSGTDFSLNIHPVEEDDSAMYFCQQSKEVPRTFGGGSRLEIKR
With B3, in test [2], the EC50, saporin (Fab-ZAP) cell killing, G401 Cells amounted to 1.1 pM; the EC50, saporin (Fab-ZAP) cell killing, HEK293T Cells came to 0.45 pM; the elimination of BR13 and BR64 breast NTX tumor cells, antibody at 0.2 nM with Fab-ZAP is 70% and 80%.

B4: SC6.24 (antibody, V domains shown)
VH: QVQLQQSGPEVVRPGVSVKISCKGSGYTFTDYAVHWVKLSHAKSLEWIGVISTYNDYTYNNQDFKGKATMTVDKSSSTAYMELARLTSEDSAIYYCARGNSYFYALDYWGQGTSVTVSS
VL: DIVLTQSPASLAVSLGQRATISCRASESVDSYGKSFMHWYQQRPGQPPKLLIYRASNLESGIPARFSGSGSRTDFTLTINPVEADDVATYYCQQSNEDPWTFGGGTKLEIK
For the molecule B4, in test [1], the EC50, saporin (Fab-ZAP) cell killing, G401 Cells came to 6.7 pM and the EC50, saporin (Fab-ZAP) cell killing, HEK293T Cells was found to be 11 pM.

B5: SC6.58 (antibody, V domains shown)
VH: EVKLLESGGGLVQPGGSLKLSCAASGFDFSRYWMSWVRQAPGKGLEWIGDLNPDSSAINYTPSLKDKFIISRDNAKNTLYLQMSKVRSEDTALYYCTLITTLVPYTMDFWGQGTSVTVSS
VL: ETTVTQSPASLSMAIGEKVTIRCITNTDIDDDMNWYQQKPGEPPKLLISEGNGLRPGVPSRFSSSGYGTDFVFTIENMLSEDVADYYCLQSDNLPLTFGSGTKLEIK
In test [1], B5 displayed an EC50, saporin (Fab-ZAP) cell killing, G401 Cells of 35.1 pM and an EC50, saporin (Fab-ZAP) cell killing, HEK293T Cells of 86.8 pM.

B6: SC6.41 (antibody, V domains shown)
VH: EVQLQQSGAESVRSGASVKLSCTASGLNIKDYYMHWVNLRPEQGLEWIGWIDPENGDTEYAPEFQGKATMTADTSSNTAYLQLSSLTSEDTAVYYCNACNYGSAYGYWGQGTTLTVSS
VL: DIVLTQATPSVPVTPGESVSISCRSSKSLLHTKGDTYLYWFLQRPGQSPQLLIYRMSNLASGVPDRFSGSGSGTVFTLRISRVEAEDVGVYYCMQHLEYPFTFGSGTKLEIKR
Regarding B6, in test [1], the EC50, saporin (Fab-ZAP) cell killing, G401 Cells was 2.6 pM and the EC50, saporin (Fab-ZAP) cell killing, HEK293T Cells was found to be 5.7 pM.
